Assay results taken from article PMC11419155 (bioRxiv, 2024).

Target: recombinant HAstV1 capsid spike, histidine-tagged (Human astrovirus 1 (AAC34717.1), UniProt O12792)
Assay: BLI

Chain of recombinant HAstV1 capsid spike, histidine-tagged (O12792 429-645): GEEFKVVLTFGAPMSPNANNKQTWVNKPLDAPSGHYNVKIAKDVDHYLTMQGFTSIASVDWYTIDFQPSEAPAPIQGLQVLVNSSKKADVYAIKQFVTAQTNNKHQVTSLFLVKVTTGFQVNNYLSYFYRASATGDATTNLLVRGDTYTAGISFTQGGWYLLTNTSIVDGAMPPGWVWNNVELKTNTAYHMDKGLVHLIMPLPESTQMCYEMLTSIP

Row | Binder | Kd [nM]
1 | recombinant Fab 3B4 (Fab, V domains shown) VH: QVQLHQPGAELVKPGASVNLSCKASGYTFTSYWMHWVKQRPGQGLEWIGEINPSSGRANYNEKFKNKATLTVDKSSITAYMHLSSLTSEDSAVYYCHWDYYAMDYWGQGTSVTVSS VL: DIVLTQSPATLSVTPGDSVSLSCRASQSISNNLHWYQQKSHESPRLLFKSASQSISGIPSRFSGSGSGTDFTLSINSVETEDFGMYFCQQTNSWPLTFGTGTKLDLK | 11.8
2 | recombinant Fab 3H4 (Fab, V domains shown) VH: QVQLKESGPGLVAPSQSLSISCTVSGFSLTTFGIHWIRQPPGKGLEWLGVIWAAGTTNYNSTLKSRLTITKDNSRSQVFLKMNSLQTYDTAIYYCVREDYDYFFGLDYWGQGTSVTVSS VL: QAVVTQESALTTSPGETVTLTCRSSTGAVTTSNYASWVQEKPDHLFIGLIGGTNNRAPGVPARFSGSLIGDKAALTITGAQTDDEAIYFCALWFSNHWVFGGGTKLTVL | 0.49
